Laboratory results as given in the nanobody polyreactivity screen of Harvey et al. (2022).

Assay: yeast display, Sf9 membrane polyspecificity reagent, FACS + sequencing; frameworks hold sequencing errors
Procedure, shortened: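 Synthetic nanobody libraries on Saccharomyces cerevisiae BJ5465 were galactose-induced for 36–48 hours, stained 1 hour at 4 °C with 10% biotinylated, detergent-solubilized Sf9 membrane reagent and enriched on streptavidin microbeads. FACS then separated cells into low and high (top ~1%) gates by anti-HA (expression) and streptavidin (reagent binding) fluorescence. Genes were colony-PCR amplified, MiSeq 2 × 250 sequenced and CDR-length filtered. A clone's polyreactivity label is that of its gate of origin.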
In the case of “QVQLQESGGGLVLAGGSLRLSCSASGNISVYGSMGWYRQAPGKEREFVATIDPGTNTNYADSVKDRFTISRDNAKNTVYLQMNTRKPEDTAVYYCAVEAGSDWPYRYWGQGTEVTVSS”, the “polyreactivity (PSR sort gate)” value is reported as “low polyreactivity”. With “QVQLVESGGRLVQAGGSLRLSCAASGSTFTVIGMGWYRQAPGKERELVASITWSGGSTYYADSVKGRFTISRDNAKNTVYLQMTSLIPEDTAVYYCAADEKLYITGYDYWGQGTQVTVSS” the “polyreactivity (PSR sort gate)” value was “low polyreactivity”. In the case of “QVQLVESGGGLVQAGGSLRLSCAASGSIFKGNAMGWYRQAPRKERELVATITSSGDSTNYADSVKGRFTISRDNAKNTVYLQMNSLKPEDTAVYYCATEPFRYSLAGGYWGQGTQVTVSS”, the “polyreactivity (PSR sort gate)” value is reported as “low polyreactivity”. For “QVQLVESGGGLVQAGGSLRLSCAATGSIFRRNAMGGYRQAPGKERELVAAISSNGGSTYYADSVKGRFTISRDNAKNTVYLQMNSLKPEDTAVYYCNALGRVRYPFDYWGQGTQVTVSS”, the “polyreactivity (PSR sort gate)” value was “high polyreactivity”. For “QVQLVESGGGLVQAGGSLRLSCAASGSTFYSYAMGWSRQAPGKERELVAAITRGGRTYYADSVKGRFTISRDNAKNTVYLQMNSLKPEDTAVYYCNVVTKFTGRGYDYWGQGTQVTVSS”, the “polyreactivity (PSR sort gate)” value was “high polyreactivity”. For “QVQLVESGGGLVQAGGSRLSCAASGLIFISYTMGWYRQAPGKERELVAAIDSSGGNTYYADSVKGRFTISRDNAKNTVYLQMNSLKPDDTAVYYCNAAWPYKSVEYCGQGTQVTVSS”, the “polyreactivity (PSR sort gate)” value was “low polyreactivity”. For “QVQLVDSGGGLVQAGGSHRLSCAASGFTFPYNAMGWYRQAPGKERELVAANSSTGGITYYADSVKGRFTISRDNAKNTVYLQMNSLKPEDTAVYYCGWYDYWGQGTQVTVSS”, the “polyreactivity (PSR sort gate)” value was “low polyreactivity”. In the case of “QVQLVESGGGLVQAGGSLRLSCAASGFIFVYNSMGWSRPAPGKEREFVASITWSGGRTYYADSVKGRFTISRDNAKNTVYLQMNSLKREVTAVYFCATKYPNSQVRRYDYWGQGTQVTVSS”, the “polyreactivity (PSR sort gate)” value is reported as “low polyreactivity”. With “QVQLVESGGGLVQAGRRLRLSCAASGSTFGYYAMGWYRQAPGKERELVAAITSGATTNYADSVKGRFTISRDNAKNTVYLQMNSLKPEDTAVYYCAAGFQTRTPLNEFDNWGQGTQVTVSS” the “polyreactivity (PSR sort gate)” value was “low polyreactivity”. With “QVQLVESGGGLVQAGGSLRLSCAASGSTFGGYTMGWYRQAPGKERELVAAISRRGGSTYYADSVKGRFTISRDNAKNTVYLQMNSLKPEDTAVYYCAALYVYRPRTPYGYWGQGTQVTVSS” the “polyreactivity (PSR sort gate)” value was “high polyreactivity”. In the case of “QVQVVESGGGLVQAGGSLRLSCAASGRTFIGNAMGWYRQAPGKERELVAAMSRSGGSTSYADSVKGRFTISRDNAKNTVYLQMNSLKPEDTAVYYCAKGYRGYSYGYWGQGTQVSVSS”, the “polyreactivity (PSR sort gate)” value is reported as “high polyreactivity”. In the case of “QVQLVESGGGLVQAGGSLRLSCAASGRIFGYYAMGWYRQAPGKERELVAAISSNGGSTYYADSVKGRFTISRDNAKNTVYLQMNSLKPEDTAVYYCKVYFYSRHYFYRGDYWGQGTQVTVSS”, the “polyreactivity (PSR sort gate)” value is reported as “high polyreactivity”. For “QVQLVESGGGLVQAGGSLRLSCAASGLTFFKYTMGWYIQAPGKERELVAAINGGGSTNYADSVKGRFTISRDNAKNTVYLQMNSLKPEDTAVYYCAAGLPYGYDYWGQGTQVTVSS”, the “polyreactivity (PSR sort gate)” value was “low polyreactivity”. In the case of “QVQLVESGGGLVQAGGSLRLSCAASGSIITPYAMGWYRQAPGKERELVAAISGRGGSTYYADSVKGRFTISRDNAKNTVYLQMNSLKPEDTAVFFCAAKRSGGQGQGYGYWGQGTQVTVSS”, the “polyreactivity (PSR sort gate)” value is reported as “high polyreactivity”. For “QVQLVESGGGLVQAGGSLRLSCAASGIIFSSNAMGWYTQAPGKERELVAAISRRGGSTYYADSVKGRFTISRDNAKNSVYLQMNSLKPEDTAVYYCNALLYNGAGYDYWGQGTQVTVSS”, the “polyreactivity (PSR sort gate)” value was “high polyreactivity”. In the case of “QVQLVESGGGLVQAGGSLRLSCASSGFIFGRNAMGWYRQAPGKERELVAGISSRGGRTYYADSVKGRFTISRDNAKITVYLEMNSLKPEDTAEYYCAAAGLTDYVRYDYWGQGTQVTVSS”, the “polyreactivity (PSR sort gate)” value is reported as “high polyreactivity”. With “QVQLVESGGGLDQAGGSLRLSCAASGLTFYSYAMGWYRQAPGKERELVAAISSSGGNTYYADSVKGRFTISRDNAKNTVYLQMNSLKPEDTAVYYCAARYTAYIQYGMGYWGQGTQVTVSS” the “polyreactivity (PSR sort gate)” value was “high polyreactivity”. For “QVQLVESGGGLVQAGGSLRLSCAASGRTFRYYTMGWYRQAPGKERELVASISWSGGSTYYADSVKGRFTISRDNAKNTVYLQMNSLKPEDTAVYYCNAVYGYRGVTNMDYWGQGTQVTVSS”, the “polyreactivity (PSR sort gate)” value was “high polyreactivity”. For “QVQLVESGGGLFQAGGSLRLSCAASGRIVGLYAMGWYRPAPGKERELVAAISRGGSTNYADSVKGRFTISRDNAKNTVYLQMNSQKPEDPAVYYCNARYVKYYTYLYNYDYWGQGTQVTVSS”, the “polyreactivity (PSR sort gate)” value was “high polyreactivity”. With “QVQLVESGGGLVQAGGSLRLSCAASGRTFDRNARGWYRQAPGKEREVVARITIDGSTNYADSVKGRFTISRDNAKNTVYLQMNSLKPEETAVYYCATDQLSLSWYFRPYDYCYWGQVTQVTVSS” the “polyreactivity (PSR sort gate)” value was “high polyreactivity”. In the case of “QVQLVESGGGLVQAGGSLRLSCAASGRIFHYYAMGWYRQAPGKERELVAAITSSGGSTYYADSVKGRFTISRDNAKNTVYLQMNSLKPEDTAVYYCAAGLIVGRFLRYDYWGQGTQVTVSS”, the “polyreactivity (PSR sort gate)” value is reported as “high polyreactivity”. In the case of “QVQLVESGGGLVQAGGSLRLSCAASGSTFARYAMGWYRQAPGKDREFVAVSTSGGSTYYADSVNGRFTISRDNAKNPVYLQMNSLKPEDTAVYYCAAQSYFVFGSYRRYYGYDYWGQGTQVTVSW”, the “polyreactivity (PSR sort gate)” value is reported as “high polyreactivity”. With “QVQLVESGGGLVQAGGSLRLSCAASGSIFTYNAMGWYRQAPGKERELVAAISTSGGSTYYADSVKGRFTISRDNAKNTVYLQMNSLKPEDTAVYYCAAEYYVYPFWYGYWGQGTQVTVSS” the “polyreactivity (PSR sort gate)” value was “high polyreactivity”. For “QVQLVESGGGLVQAGGSLRLSCAASGSTFYAYVMGWYRQAPGKERELVAAITSAGSTYYADSVKGRFTISRDNAKNTVYLQMNSLKPEDTAVYYCAAYYIVHSRQTQGFERYDYWGQGTQVTVSS”, the “polyreactivity (PSR sort gate)” value was “low polyreactivity”. With “QVQLVESGGGLVQAGGSLRLSCAASGSIFYIYAMGWYRQAHGKERELVAAISSGGATYADSVKGRFTISRDNAKNTVYLQMNSLKPEDTAVYYFAVDRAFRAQNYHEYDYWGQGTQVTVSS” the “polyreactivity (PSR sort gate)” value was “low polyreactivity”. For “QVQLVESGGGLVQAGGSLRLSCAASGSTFSYYAMGWYRQAPGKERELVAAISSSGGSTYYADSVKGRFTISRDNAKNTVYLQMNSLKPEDTAVYYCNADSWRRRGRSRYDHWGQGTQVTVSS”, the “polyreactivity (PSR sort gate)” value was “low polyreactivity”. With “HVQLVESGGGLVQAGGSLRLSCAASGLTFTRYTMGWSRQAPGKERELVAAITSSGGSTYYADSVKGRFTISRDNAKNTVYLQMNSLKPEDTAVYDCAARTGYGYGARRTLKSRYDYWGQGTQVTVSS” the “polyreactivity (PSR sort gate)” value was “high polyreactivity”. For “QVQLVESGGGLVQAGGSLRLSCAASVIIFTRYAMGWYRQATGKERELVAGITRRGGSTYYADSVKGRFTISRDNAKNTVYLQMKSLKPEDTAVYYCNTYQRDYPYGVEDDSWGQGTEVTVSS”, the “polyreactivity (PSR sort gate)” value was “high polyreactivity”. In the case of “QVQIVESGGGLVQAGGSLRLTCAASGFIFSRYAMGWYRQAPAKERELVAAITSGGRTNYADSVKGRFTISRDNAKNTVYLQMNRLKPEDTAVYYCSGAFYPFWPRYTSDYWGQGTQVTVSS”, the “polyreactivity (PSR sort gate)” value is reported as “high polyreactivity”. With “QVQLVESGGGLVQAGGSLRLSCAASGSTFYYYGMGWYRQAPGKESALVAAISSSGGNTYYADSVKGRFTISRDNAKNTVYLQMNSLKPEDTAVYYCARGGHRGYWGQGTQVTVSS” the “polyreactivity (PSR sort gate)” value was “low polyreactivity”. For “QVQLVESGGGLVQAGGSLRLSCAASGRIFSAYAMGWYRQAPGKEREFVAAISSRGGSTNYADSVKGRFTISRDNANNTVYLHMNSLKPEDTAVYYCNARYVQWYWIGKVIHIDNDYWGQGTQVNVSS”, the “polyreactivity (PSR sort gate)” value was “low polyreactivity”. In the case of “QVQLVESGGGLVQAGGSLRLSCAASGRTFASYAMGWYRQAPGKERELVAVISRGGSNTNYADSVKGRFTISRDNAKNTVYLQLNSLKPEDTAVYYCADLAFKRYNPGGYDYWGQGTQVTVSS”, the “polyreactivity (PSR sort gate)” value is reported as “high polyreactivity”. In the case of “QVQLVESGGGLVQAGGSLRLSCAASGNTFWDNAMGWYRQAPGKERELVAAIRWSTASTHYADSVKGRFTISRDNAKNTVYFPMNSLKPEDTAVYYCAATDYYYYRDKYYGYDNWGQGTQVTVSS”, the “polyreactivity (PSR sort gate)” value is reported as “low polyreactivity”. For “QVQLVESGGGLVQAGGSLRLSCAASGNTFQYYAMGWYRQAPGKEREFVAAISRRGGSTYYADSVKGRFTISRDNAKNTVYLQMNSLKPEDTAVYYCNKVIVLSQSSYSFHYAYDYWGQGTQVTVSS”, the “polyreactivity (PSR sort gate)” value was “high polyreactivity”. With “QVQLLETGGGLVQAGGSLRLSCAASGSILRWYVRGWYRQAPGKERELVADIDSGGSTNYADSVKGRFTISRDNAKNTVFLQMNSLKPEDTAVYYCASDVPSRSRYGVYRRDGMDYWGQGTQVTVSS” the “polyreactivity (PSR sort gate)” value was “low polyreactivity”. For “QVQLQESGGGLVQAGGSLRLGCAASGNISDAGYMGWYRQAPGKEREFVAAIAAGSNTNYADSVKGRFTISRDNAINTVYLQMNSLKPEVTAVFYCAVASYARVQYEYWGQGTQVTVNS”, the “polyreactivity (PSR sort gate)” value was “low polyreactivity”. In the case of “QVQLVESGGGLVQAGGSLRLSCAASGIIFDYYPMGWYRQAPGKERELVAGITRSGGRTYYADSVKGRFTISRDNAKNTVYLQMNSLKPEDTAVYYCAAQRGRRRWGGYWGQGTQVTVSS”, the “polyreactivity (PSR sort gate)” value is reported as “high polyreactivity”. In the case of “QVQLVESGGGLVQAGGSLRLSCAASGRTFGYYAMGWYRPAPGKERELVAAITSSSSTNYADSVKGRFTISRDNAKNTVYLQMNSLKPEDTAVYYCAAYGYYRSGYRALEGYWGQGTQVTVSS”, the “polyreactivity (PSR sort gate)” value is reported as “high polyreactivity”. In the case of “QVQLVESGRGLVQAGGSLRLSCAASGRIFTKNTMGWYRQAPGKERELVAAIRSRAGSTYYADSVKGRFTISRDNAKNTVYLQMNSLKPEDTAVYYCAVPWFRSVDFDYWGQGTQVTVSS”, the “polyreactivity (PSR sort gate)” value is reported as “low polyreactivity”. In the case of “QVQLVESGGGLVQAGGSLRLSCAASGRTFWYYTMGWYRQAPGKEWELVAAIRASGGGTYADSVKGLFTISRDNAKNTVYLQMNSLNPEDTAVYYCAVRNVYGWYGSRDYWGQGTQVTVSS”, the “polyreactivity (PSR sort gate)” value is reported as “high polyreactivity”. In the case of “QVQLVESGGGLVQAGGRLRLSCAASGRIFTRYAMGWYRQAPGKERELVAAINYRGSSTYYADSVKGRFTISRDNAKNTVYLQMNSLKPEDTAVYYCNTYGQTDTYWRYYYWGQGTQVTVSS”, the “polyreactivity (PSR sort gate)” value is reported as “high polyreactivity”. With “QVQLVESGGGLVQAGGSLRLSCAASGRTFGNYAMGWSRQAPGKERELVAAITFRGGSTYYADSVKGRFTISRDNAKNTVYLQMNSLKPEDTAVYYCNAERYVGHTYFQFDYWGQGTQVTVSS” the “polyreactivity (PSR sort gate)” value was “high polyreactivity”. In the case of “QVQLVESGGGLVQAGGSLRLSCAASGSTFTYNAMGWYRHAPGKERELVASISSGTTTYYADSVKGRFTISRDNAKNTVYLQLNSLKPEDTAVYFCAVDSWSRVQGWLAHNYDYWGQGTQVTVSS”, the “polyreactivity (PSR sort gate)” value is reported as “low polyreactivity”.
